Measurements from patent US20240254227A1 (Alector, published 2024).

T1: human CD300LB-Fc (human)
T1 construct: hIgG1-Fc fusion; the entry is the whole fusion chain
T1 chain: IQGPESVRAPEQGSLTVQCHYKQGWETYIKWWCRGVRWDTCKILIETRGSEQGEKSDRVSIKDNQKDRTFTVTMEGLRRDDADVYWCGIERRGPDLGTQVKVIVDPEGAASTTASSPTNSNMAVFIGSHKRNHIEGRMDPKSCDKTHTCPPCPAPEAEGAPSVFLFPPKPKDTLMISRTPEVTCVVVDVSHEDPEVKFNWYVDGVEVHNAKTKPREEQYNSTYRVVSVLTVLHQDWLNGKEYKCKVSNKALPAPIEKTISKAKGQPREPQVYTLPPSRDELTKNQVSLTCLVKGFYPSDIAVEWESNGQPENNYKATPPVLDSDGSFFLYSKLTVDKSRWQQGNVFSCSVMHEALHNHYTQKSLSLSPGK

T2: human CD300A-Fc (human)
T2 construct: hIgG1-Fc fusion; the entry is the whole fusion chain
T2 chain: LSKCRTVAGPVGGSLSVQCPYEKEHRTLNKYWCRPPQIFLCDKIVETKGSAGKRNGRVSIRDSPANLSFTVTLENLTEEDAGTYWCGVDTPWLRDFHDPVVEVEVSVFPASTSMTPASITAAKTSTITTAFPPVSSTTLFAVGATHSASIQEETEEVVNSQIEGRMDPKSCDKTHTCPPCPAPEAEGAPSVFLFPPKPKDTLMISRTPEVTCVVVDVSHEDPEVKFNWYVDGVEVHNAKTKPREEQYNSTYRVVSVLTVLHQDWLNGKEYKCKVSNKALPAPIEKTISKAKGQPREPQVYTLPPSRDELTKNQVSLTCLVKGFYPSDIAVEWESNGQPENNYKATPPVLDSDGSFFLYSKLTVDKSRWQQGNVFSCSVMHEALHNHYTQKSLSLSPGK

T3: human CD300D-Fc (human)
T3 construct: hIgG1-Fc fusion; the entry is the whole fusion chain
T3 chain: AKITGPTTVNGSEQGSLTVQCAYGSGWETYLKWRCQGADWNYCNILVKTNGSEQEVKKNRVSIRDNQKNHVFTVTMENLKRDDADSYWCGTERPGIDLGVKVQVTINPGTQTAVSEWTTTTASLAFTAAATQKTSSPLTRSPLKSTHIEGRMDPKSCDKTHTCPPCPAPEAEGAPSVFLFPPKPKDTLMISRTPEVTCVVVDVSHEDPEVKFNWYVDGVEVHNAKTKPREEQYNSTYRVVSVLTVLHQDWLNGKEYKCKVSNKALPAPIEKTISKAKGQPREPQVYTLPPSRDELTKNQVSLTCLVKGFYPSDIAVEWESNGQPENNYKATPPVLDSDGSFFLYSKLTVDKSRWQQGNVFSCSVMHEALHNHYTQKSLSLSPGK

T4: human CD300E-Fc (human)
T4 construct: hIgG1-Fc fusion; the entry is the whole fusion chain
T4 chain: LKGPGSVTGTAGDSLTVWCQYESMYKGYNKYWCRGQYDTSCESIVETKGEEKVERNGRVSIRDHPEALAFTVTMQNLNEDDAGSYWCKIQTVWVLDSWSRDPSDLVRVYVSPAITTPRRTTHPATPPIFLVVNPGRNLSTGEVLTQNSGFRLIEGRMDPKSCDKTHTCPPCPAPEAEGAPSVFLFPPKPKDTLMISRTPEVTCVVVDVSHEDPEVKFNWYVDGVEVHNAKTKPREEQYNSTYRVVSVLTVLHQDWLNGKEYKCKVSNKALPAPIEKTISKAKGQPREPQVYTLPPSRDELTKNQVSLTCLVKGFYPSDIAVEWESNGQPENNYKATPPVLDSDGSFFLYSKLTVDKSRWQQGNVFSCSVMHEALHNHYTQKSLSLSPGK

T5: human CD300F-Fc (human)
T5 construct: hIgG1-Fc fusion; the entry is the whole fusion chain
T5 chain: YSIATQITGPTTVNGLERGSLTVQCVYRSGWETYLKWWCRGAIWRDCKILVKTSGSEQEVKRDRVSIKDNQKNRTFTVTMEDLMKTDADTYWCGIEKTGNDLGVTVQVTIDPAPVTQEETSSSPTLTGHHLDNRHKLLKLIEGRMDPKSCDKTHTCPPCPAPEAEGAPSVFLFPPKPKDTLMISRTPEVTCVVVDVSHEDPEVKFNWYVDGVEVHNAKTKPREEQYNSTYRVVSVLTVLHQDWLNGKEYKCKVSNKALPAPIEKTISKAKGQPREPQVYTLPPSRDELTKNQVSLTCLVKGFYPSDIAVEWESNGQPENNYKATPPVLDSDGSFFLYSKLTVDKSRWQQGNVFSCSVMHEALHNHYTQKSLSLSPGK

B1: anti-CD300LB antibody CD-05 (antibody, V domains shown)
VH: QVQLVQSGAEVKKPGASVKVSCKASGYTFSRYYINWVRQAPGQGLEWMGWINPNSGGTNYAQKFQGRVTMTRDTSTSTVYMELSSLRSEDTAVYYCTTDQLRFGKTGPYYGMDVWGQGTTVTVSS
VL: DIQMTQSPSSLSASVGDRVTITCRASQNIGTYLNWYQQKPGKAPKLLIYAASSLQSGVPSRFSGSGSGTDFTLTISSLQPEDFATYYCQQSYSDTLTFGGGTKVEIK
B2: anti-CD300LB antibody CD-02 (antibody, V domains shown)
VH: QVQLQQPGAELVRPGSSVKLSCQASGYTFTNYWMHWVRQRPIQGLEWIGNIDPSDSETHYNQKFKDRATLTVDKSSSTAYMQLSSLTSEDSAVYYCARSGVYDDEGGDYWGQGTTLTVSS
VL: ENVLTQSPAIMSASPGEKVTMTCSASSSVSYIHWYQQKSSTSPKLWIYDTSKLASGVPGRFSGSGSGNSYSLTISSMETEDVATYYCFQGSGYPLTFGAGTKLELK
B3: anti-CD300LB antibody CD-03 (antibody, V domains shown)
VH: EVQLQQSGPELVKPGASVKISCKASGYTFTDYYINWVRQSHGKSLECIGDINPNNGGTNYNQKFKGKATLTVDRSSNTAYMEFRSLTFDDSALYYCAAEGAYWGQGTLVTVSA
VL: not shown
B4: anti-CD300LB antibody CD-01 (antibody, V domains shown)
VH: RVQLQQSGAELVRPGASVTLSCKASGFTFTDFEMHWVKKTPVHGLEWIGAIDPESGNTAYNQKFRGKATLTADKSSSTAYMELRYLTSEDSAVYYCTPLISGADYWGQGTTLTVSS
VL: DVVMTQSPLSLPVSLGDQASISCRSSQSLVHSDGNTYLYWYLQKPGQSPKLLIYKVSNRFSGVPDRFSGSGSGTDFTFKISRVGAEDLGVYFCSQSTHVPWTFGGGTKLEII

Molecular target: T1, human CD300LB-Fc
Assay: SPR (Carterra LSA), antibody immobilised, Fc fusion at 300 or 600 nM
Procedure: (§1) Binding of mouse anti-CD300LB IgG1 antibodies of the present disclosure to human and murine CD300 orthologs were evaluated by surface plasmon resonance (SPR) using a Carterra LSA instrument (Carterra, Salt Lake City, UT). […] A HC200M sensor chip (Carterra) was activated using the single channel flow cell with a 7-minute injection of a 1:1:1 mixture of 100 mM MES pH 5.5, 100 mM sulfo-NHS, 400 mM EDC (all reconstituted in MES pH 5.5; 100 μL of each mixed in vial immediately before running assay). After switching to the multi-channel array flow cell, the antibodies were injected over the activated chip in a 96-spot array for 10 minutes. The remaining unconjugated active groups on the chip were then blocked by injecting 1M Ethanolamine pH 8.5 (Carterra) for 7 minutes using the single channel flow cell. After priming with running buffer (HBS-TE, Carterra) with 0.5 mg/ml BSA (Sigma), the immobilized anti-CD300LB antibodies were tested for their ability to bind human and mouse recombinant CD300LB extracellular domains. Human CD300 family members and mouse CD300A were hIgG1-Fc fusions, while mouse CD300LB, mouse CD300C, mouse CD300D, and mouse CD300E were mouse IgG2a-Fc fusions (R&D Systems). Binding was assessed by injecting each analyte over the entire antibody array using the single channel flow cell. CD300 analytes were diluted to 300 nM or 600 nM in running buffer and injected in series without regeneration. Two or three buffer blanks were run between each mouse or human ortholog, respectively. Data were processed and analyzed using NextGenKIT high-throughput kinetics analysis software (Carterra).
(§2) Results of anti-CD300LB antibody binding to human CD300 family members is provided below in Table 7.

Row | SPR binding (control subtracted) | Binder
1 | 51 | B1
2 | 21 | B2
3 | 43 | B3
4 | 3.71 | B4

Molecular target: T2, human CD300A-Fc
Assay: as above
Procedure: as §1, §2

Row | SPR binding (control subtracted) | Binder
5 | 0.24 | B1
6 | 0.735 | B2
7 | 0.095 | B3
8 | 0.175 | B4

Molecular target: T3, human CD300D-Fc
Assay: as above
Procedure: as §1, §2

Row | SPR binding (control subtracted) | Binder
9 | 0.115 | B1
10 | 0.76 | B2
11 | 0.4 | B3
12 | 0.575 | B4

Molecular target: T4, human CD300E-Fc
Assay: as above
Procedure: as §1, §2

Row | SPR binding (control subtracted) | Binder
13 | 0.195 | B1
14 | 0.62 | B2
15 | 0.18 | B3
16 | -0.105 | B4

Molecular target: T5, human CD300F-Fc
Assay: as above
Procedure: as §1, §2

Row | SPR binding (control subtracted) | Binder
17 | 0.045 | B1
18 | 0.87 | B2
19 | 0.42 | B3
20 | 0.075 | B4
